# Reference: paper doi:10.1101/2025.08.27.672506
# Biological target: wild-type ectodomain of HA from A/Malaysia/1706215/2007 (H1N1) (influenza A virus A/Malaysia/1706215/2007 (H1N1))
# Assay: SEC
substance,measurement,value
wild-type ectodomain of HA from A/Malaysia/1706215/2007 (H1N1) (domain or fragment),stoichiometry N,3
